We go through two molecules from patent US20200360435A1 (published 2020).

In this experiment the target is HTLV-1 Tax peptide on HLA-A*24:02 (human). As to the kind of experiment: multimer staining.

B1: TCR7-2 (TCR, V domains shown)
Valpha: KQEVTQIPAALSVPEGENLVLNCSFTDSAIYNLQWFRQDPGKGLTSLLLIQSSQREQTSGRLNASLDKSSGRSTLYIAASQPGDSATYLCAVSRGNARLMFGDGTQLVVKP
Vbeta: DTGVSQDPRHKITKRGQNVTFRCDPISEHNRLYWYRQTLGQGPEFLTYFQNEAQLEKSRLLSDRFSAERPKGSFSTLEIQRTEQGDSAMYLCASAEDRGEKLFFGSGTQLSVL
As to B1, the binding result is “recognises”.

B2: TCR7-3 (TCR, V domains shown)
Valpha: KQEVTQIPAALSVPEGENLVLNCSFTDSAIYNLQWFRQDPGKGLTSLLLIQSSQREQTSGRLNASLDKSSGRSTLYIAASQPGDSATYLCAVSRGNNRLAFGKGNQVVVIP
Vbeta: DTGVSQDPRHKITKRGQNVTFRCDPISEHNRLYWYRQTLGQGPEFLTYFQNEAQLEKSRLLSDRFSAERPKGSFSTLEIQRTEQGDSAMYLCASSPDRADTQYFGPGTRLTVL
For B2, the binding result is on record as “recognises”.
